According to the Immune Epitope Database (IEDB):

Assays:
HLA-A*24:03 [1] = test: IEDB peptide-MHC binding, purified MHC/competitive/fluorescence; filed as Kd, often an IC50 or EC50 that approximates it; ≥ and ≤ were set here for values at or beyond the usual limits of such assays; conditions: source organism: Influenza A virus (A/Harbin/1/1988(H1N2))
HLA-B*44:02 [2] = test: IEDB peptide-MHC binding, purified MHC/competitive/radioactivity; filed as Kd, often an IC50 or EC50 that approximates it; ≥ and ≤ were set here for values at or beyond the usual limits of such assays; conditions: source organism: Dengue virus 1 Brazil/97-11/1997
HLA-B*58:01 [3] = test: as above
HLA-A*31:01 = test: IEDB peptide-MHC binding, purified MHC/direct/fluorescence; filed as Kd, often an IC50 or EC50 that approximates it; ≥ and ≤ were set here for values at or beyond the usual limits of such assays
HLA-B*44:02 [4] = test: as above
HLA-A*01:01 = test: as above
HLA-B*08:02 = test: as above; conditions: source organism: Influenza A virus(A/swine/Shandong/fZC/2003(H9N2))
HLA-B*39:01 [5] = test: as above; conditions: source organism: H9N2 subtype Influenza A virus (A/swine/Korea/S83/2004(H9N2))
HLA-A*03:01 = test: as above
HLA-B*46:01 = test: as above
HLA-A*69:01 = test: as above
HLA-B*27:05 = test: as above
HLA-B*07:02 = test: as above
HLA-B*08:01 = test: as above
HLA-B*15:01 = test: as above
HLA-A*11:01 = test: as above
HLA-B*40:01 = test: as above
HLA-A*02:01 = test: as above
HLA-B*58:01 [6] = test: as above
HLA-A*24:02 = test: as above; conditions: source organism: H9N2 subtype Influenza A virus (A/swine/Korea/S83/2004(H9N2))
HLA-B*18:01 = test: as above; conditions: source organism: West Nile virus
HLA-B*57:01 = test: as above; conditions: source organism: West Nile virus
HLA-B*48:01 = test: as above; conditions: source organism: West Nile virus
HLA-A*30:01 = test: as above
HLA-B*39:01 [7] = test: IEDB peptide-MHC binding, purified MHC/competitive/fluorescence; filed as Kd, often an IC50 or EC50 that approximates it; ≥ and ≤ were set here for values at or beyond the usual limits of such assays; conditions: source organism: West Nile virus
HLA-A*26:01 [8] = test: as above; conditions: source organism: West Nile virus
HLA-A*24:03 [9] = test: IEDB peptide-MHC binding, purified MHC/direct/fluorescence; filed as Kd, often an IC50 or EC50 that approximates it; ≥ and ≤ were set here for values at or beyond the usual limits of such assays; conditions: source organism: Pseudomonas putida
HLA-A*26:01 [10] = test: as above; conditions: source organism: Pseudomonas putida
[11] = source organism: H9N2 subtype Influenza A virus (A/swine/Korea/S83/2004(H9N2))
[12] = source organism: Influenza A virus (A/Puerto Rico/8/34/Mount Sinai(H1N1))
[13] = source organism: West Nile virus
[14] = source organism: Pseudomonas putida
[15] = source organism: Pseudomonas aeruginosa

Sequence: CYPGYFADY
- Kd (HLA-A*24:03 [1]): ≤ 0.001 µM

Sequence: ERSWNSGYDW
- Kd (HLA-B*44:02 [2]): 0.856 µM
- Kd (HLA-B*58:01 [3]; source organism: Dengue virus 1 Brazil/97-11/1997): 0.0956 µM

Sequence: HFQKDAKVL
- Kd (HLA-A*31:01; [11]): ≥ 20 µM
- Kd (HLA-B*44:02 [4]; [11]): ≥ 20 µM
- Kd (HLA-A*01:01; [11]): ≥ 20 µM
- Kd (HLA-B*08:02): ≥ 20 µM
- Kd (HLA-B*39:01 [5]): 10.4 µM
- Kd (HLA-A*03:01; [11]): ≥ 20 µM
- Kd (HLA-B*46:01; [11]): ≥ 20 µM
- Kd (HLA-A*69:01; [11]): ≥ 20 µM
- Kd (HLA-B*27:05; [11]): ≥ 20 µM
- Kd (HLA-B*07:02; [11]): ≥ 20 µM
- Kd (HLA-B*08:01; [12]): 2.3 µM
- Kd (HLA-B*15:01; [12]): 2.66 µM
- Kd (HLA-A*11:01; [11]): ≥ 20 µM
- Kd (HLA-B*40:01; [11]): ≥ 20 µM
- Kd (HLA-A*02:01; [11]): ≥ 20 µM
- Kd (HLA-B*58:01 [6]; [11]): ≥ 20 µM
- Kd (HLA-A*24:02): ≥ 20 µM

Sequence: KHVQRIETW
- Kd (HLA-B*58:01 [3]; source organism: Dengue virus 2 Jamaica/1409/1983): 0.145 µM

Sequence: LASAILNAHK
- Kd (HLA-B*58:01 [3]; source organism: Dengue virus 4 Dominica/814669/1981): 3.46 µM

Sequence: LYAVTTAVL
- Kd (HLA-B*18:01): ≥ 20 µM
- Kd (HLA-A*31:01; [13]): ≥ 20 µM
- Kd (HLA-B*44:02 [4]; [13]): ≥ 20 µM
- Kd (HLA-A*01:01; [13]): ≥ 20 µM
- Kd (HLA-B*57:01): ≥ 20 µM
- Kd (HLA-B*48:01): ≥ 20 µM
- Kd (HLA-A*03:01; [13]): ≥ 20 µM
- Kd (HLA-A*30:01; source organism: West Nile virus strain PTRoxo): ≥ 20 µM
- Kd (HLA-B*46:01; [13]): ≥ 20 µM
- Kd (HLA-A*69:01; [13]): ≥ 20 µM
- Kd (HLA-B*27:05; [13]): ≥ 20 µM
- Kd (HLA-B*15:01; [13]): ≥ 20 µM
- Kd (HLA-B*40:01; [13]): ≥ 20 µM
- Kd (HLA-B*58:01 [6]; [13]): ≥ 20 µM
- Kd (HLA-B*39:01 [7]): 0.459 µM
- Kd (HLA-A*26:01 [8]): ≥ 20 µM

Sequence: NWDWGVFFK
- Kd (HLA-A*01:01; [14]): ≥ 20 µM
- Kd (HLA-A*03:01; [14]): ≥ 20 µM
- Kd (HLA-A*30:01; [15]): 2.1 µM
- Kd (HLA-A*69:01; [14]): ≥ 20 µM
- Kd (HLA-B*27:05; [14]): ≥ 20 µM
- Kd (HLA-B*07:02; [14]): ≥ 20 µM
- Kd (HLA-A*24:03 [9]): ≥ 20 µM
- Kd (HLA-B*08:01; [14]): ≥ 20 µM
- Kd (HLA-B*15:01; [14]): ≥ 20 µM
- Kd (HLA-A*11:01; [15]): 0.0673 µM
- Kd (HLA-A*26:01 [10]): ≥ 20 µM
- Kd (HLA-B*40:01; [14]): ≥ 20 µM
- Kd (HLA-A*02:01; [14]): ≥ 20 µM
- Kd (HLA-B*58:01 [6]; [14]): ≥ 20 µM
